Results taken from the domain aggregation screens of Martell et al. (2025).
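Further: 20 min heating vs room temperature control held 20 min.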

Test: soluble fraction after stress (log2 fold change); higher = more stays soluble; pooled small domains, quantitative proteomics
Conditions: stress: 75 degC
In the case of “HMSSSYMVRITTSVLNVRKGPGTNYGITTKVKKGEVYTIVAEEKNGNTTWGKLKSGTGYISLGYTER”, the “soluble fraction (log2)” value is reported as -1.21.
With “HMSSSYVYGGNGEIVILSDVSKHLNVYNLNGQKVTDVNLTAGELQRISIATGIYVVGGKKIVV” the “soluble fraction (log2)” value was -3.52.
For “HMSSVGELEVGNIFEGTVNSVRGGKVLLALGNGQMVLAQMDGRVNITPGSSMFFQVKSNDGETVAIRPYTG”, the “soluble fraction (log2)” value was -0.247.
For “HMSSWAEGLTERERHTLMWITKGLSNKLIARELGISDSTVKVYVKNLLRKLNVNSRLELAAWVHTHPL”, the “soluble fraction (log2)” value was -1.2.
With “HMSSYTQEDVRSGILYMAQLKPRNIEEFVSTLAFSKDDIMDNLSFLVDEGFLKFDADTDTYFNPVPL” the “soluble fraction (log2)” value was -0.374.
With “HMSTADGGYPSIVINDGRVIDTNLQKLGLDRSWLSAELKRQGKGSEKDIFLMTVNQRREVYISVKEA” the “soluble fraction (log2)” value was -1.89.
With “HMSTEAFLGTEGEVVLPLLPDGLGKIRLHVADQDVELPARTGGEPIQIRERVVVVRFRDGIAEVEPAP” the “soluble fraction (log2)” value was 0.0378.
With “HMSTEDYLKTIYILESQQGVHGSDVARMLKVTRPTVSIALKALEQEGYVWMDESRLVHLTDSGLQIAKDT” the “soluble fraction (log2)” value was -0.914.
For “HMSTESAHLGERMLNQALRAMHIEPDQITEAHWQKLIRDYGLKKKSEILTDIGLGKRQNVMVAHQLLAMG”, the “soluble fraction (log2)” value was -0.539.
For “HMSTFKSYRGKITASSGVNIRTGAGTNYNKNGALTYNSVVTIVDEKKVSGTTWGKLADGRGWISLDYLKK”, the “soluble fraction (log2)” value was -2.04.
For “HMSTGGDLTQRERELLGLMARGLSNQEISKRLTIAMPTVKFHVTNILAKLHADNRTEAVLVALKNKLVAL”, the “soluble fraction (log2)” value was -1.02.
For “HMSTINGIEKYLSSGLIPYIGPKTAKRIVEKFGLDTLEIIQYNPERLKEIEGIGDKKLKKIVEAFEEQG”, the “soluble fraction (log2)” value was -0.245.
In the case of “HMSTISPNAFNFLQQNLNKFSDDAEGKMIKDILSKTTYDEYVKNEKSKTDFNSLLRRQTTTGDDNLNRYIN”, the “soluble fraction (log2)” value is reported as -0.00511.
With “HMSTKEFTIHAGEWSYRVSQKLENLGLVSDAKKFDQYLEDNGYSSKIKIGHYTISKDADFEEIAKEIT” the “soluble fraction (log2)” value was 0.632.
For “HMSTKRGEILEFLKDFSARKGYAPSVREIMQAVGLKSTASVHYHLSELHKAGLITVDGTKNRAISLA”, the “soluble fraction (log2)” value was -1.11.
For “HMSTMKSKWFVSSNPIAGVMKYQAQRKKDVNAVDSSENREASGQWYTDKEEAQAIVDKLNAEEQIKEAGK”, the “soluble fraction (log2)” value was -0.0426.
In the case of “HMSTMLPFVMRELVELVMKKKALPLGDALYYIYSSKLYKSLLDKSTKLWYSSTLSLYETLEKEKTEEKRRY”, the “soluble fraction (log2)” value is reported as -2.04.
For “HMSTMTDAQRHLFANKLSQLPEMGKYSHGTESYQQFAVRIAEMLQTPKKFKELYPYLQKVGFKA”, the “soluble fraction (log2)” value was -0.379.
In the case of “HMSTNYVQVLRAALNGVSGRKLAQQYRVSRDTVAILLRQAKIQGWQRAEDLENITEEDLVALLSG”, the “soluble fraction (log2)” value is reported as -2.43.
In the case of “HMSTPLPTGLPRGTIIEYTVQTDETLAIIAAKFNSTVDDIMTRNKITDPNTIYAGQILKVAINLVTP”, the “soluble fraction (log2)” value is reported as -1.62.
For “HMSTPVPIEGQPTENLNLRDQPSTSGKILTTIPKGKTVTILSEKNANGWYKVSYNGKTGYVSGSYFKVTK”, the “soluble fraction (log2)” value was 0.916.
In the case of “HMSTSERLKQVMEVKGFNLKTFSEQADIPYRTLQNYILTNREPSAESLAKLHSQLGINLNWLMSGKGEMF”, the “soluble fraction (log2)” value is reported as -0.685.
In the case of “HMSTSIADNSSITYKVRKGDSLASIAKRHGVNINDVMRWNSVITKASQIQPGDMLTLYVRDS”, the “soluble fraction (log2)” value is reported as 0.148.
For “HMSTTALLEKMVRYIRTLPVISQVVLSLHYYRGMELREIASELDITESRASQLHTTAVLGIRDLLSSY”, the “soluble fraction (log2)” value was -3.11.
For “HMSTTGIVKWFNEEKGFGFITQDQGGADVFVHYRAIASEGFKTLAEGQKVSFEVEQGQKGLQAANVQA”, the “soluble fraction (log2)” value was 0.333.
For “HMSTTHLTASVIKDKVNVRSEADSQNGAIIDKARTGERLLVTDYGNKWTGIVLPDGKRGYIMTEYLQF”, the “soluble fraction (log2)” value was -0.114.
In the case of “HMSTTSYTQFMEDAKAGKIARVDIKGREITVTPTEGSRYVITSPGDLWMVDDLRKDGVQVYGPP”, the “soluble fraction (log2)” value is reported as 0.0558.
In the case of “HMSTTYLNEGDRITLTDSVNIRTSMSETADRVGLAYQGDVVTVIMSYAEGWTKVSWNGQTGYAKTEYL”, the “soluble fraction (log2)” value is reported as -1.52.
For “HMSTVIENVFKNFEVYEIKKGDTFYNIEKRFGVNRQELLVLNPELKEGLKLGMVLKIKEIIP”, the “soluble fraction (log2)” value was -3.02.
For “HMSTYTETETAYLKAYSAAGVDGKISDSERGILNMTAEALGITVERTTELEAMFNLTVEEEA”, the “soluble fraction (log2)” value was -0.0838.
In the case of “HMSVDIWTGAQTGNIEAVKQHLADGVDVNSKSDIGRTALDVAIAFKQPLITDLLRKHGGKTRDELKAAE”, the “soluble fraction (log2)” value is reported as no less than 1.04.
In the case of “HMSVEVADITRAYYEGVGFEWWIRSVRLDPNELIVDNDDEGKLYRVPFEINGEEVTFGDPVEVKIRYE”, the “soluble fraction (log2)” value is reported as -0.995.
For “HMSVFGDNVARLRAEHGMSQRALAERLEITNGTVAAWESRDTLPDYDRIRQIAEIFDVPIPQLFAKYIP”, the “soluble fraction (log2)” value was -1.54.
In the case of “HMSVISVETAKSKALAHAGLTASKVTFIENKLEWDDGRQVYDIEFYTSDYKEYDYTIDAVSGQVLEFDY”, the “soluble fraction (log2)” value is reported as -1.67.
In the case of “HMSVKLMEVKGASTVVSRQVREAVSIVFPTSSMRLDLVALKARIEGVDAVKRADVYLRNGILEIQIDER”, the “soluble fraction (log2)” value is reported as -2.11.
With “HMSVKLYPNPTRSVTTFATDVDKWYLYDNQGKLVSEGNTKTIDVTAFPVGIYFVKTIKGNNSTFVKLIV” the “soluble fraction (log2)” value was -2.14.
In the case of “HMSVLNLQTDIPKKYTDVLGTSVKGRLNTLVHNVIINSVDRPVIQMSEEVHEAMQGLRIFMFENVYRNPV”, the “soluble fraction (log2)” value is reported as 0.187.
For “HMSVLSEQIKEQLMEDIFHKKYKAGDRIVESALARELGVSQASVREALRSLIAMGFLENEPFKGITVR”, the “soluble fraction (log2)” value was -0.000514.
